B1: Autophagy-related protein 19 (Saccharomyces cerevisiae), P35193 (parent)
chain: MNNSKTNQQMNTSMGYPLTVYDECNKFQLIVPTLDANIMLWCIGQLSLLNDSNGCKHLFWQPNDKSNVRILLNNYDYGHLFKYLQCQRKCSVYIGEGTLKKYNLTISTSFDNFLDLTPSEEKESLCREDAHEDPVSPKAGSEEEISPNSTSNVVVSRECLDNFMKQLLKLEESLNKLELEQKVTNKEPNHRISGTIDIPEDRSELVNFFTELKTVKQLEDVFQRYHDYERLSQECDSKTEIASDHSKKETKIEVEPPNERSLQITMNQRDNSLYFQLFNNTNSVLAGNCKLKFTDAGDKPTTQIIDMGPHEIGIKEYKEYRYFPYALDLEAGSTIEIENQYGEVIFLGKYGSSPMINLRPPSRLSAESLQASQEPFYSFQIDTLPELDDSSIISTSISLSYDGDDNEKALTWEEL
partner: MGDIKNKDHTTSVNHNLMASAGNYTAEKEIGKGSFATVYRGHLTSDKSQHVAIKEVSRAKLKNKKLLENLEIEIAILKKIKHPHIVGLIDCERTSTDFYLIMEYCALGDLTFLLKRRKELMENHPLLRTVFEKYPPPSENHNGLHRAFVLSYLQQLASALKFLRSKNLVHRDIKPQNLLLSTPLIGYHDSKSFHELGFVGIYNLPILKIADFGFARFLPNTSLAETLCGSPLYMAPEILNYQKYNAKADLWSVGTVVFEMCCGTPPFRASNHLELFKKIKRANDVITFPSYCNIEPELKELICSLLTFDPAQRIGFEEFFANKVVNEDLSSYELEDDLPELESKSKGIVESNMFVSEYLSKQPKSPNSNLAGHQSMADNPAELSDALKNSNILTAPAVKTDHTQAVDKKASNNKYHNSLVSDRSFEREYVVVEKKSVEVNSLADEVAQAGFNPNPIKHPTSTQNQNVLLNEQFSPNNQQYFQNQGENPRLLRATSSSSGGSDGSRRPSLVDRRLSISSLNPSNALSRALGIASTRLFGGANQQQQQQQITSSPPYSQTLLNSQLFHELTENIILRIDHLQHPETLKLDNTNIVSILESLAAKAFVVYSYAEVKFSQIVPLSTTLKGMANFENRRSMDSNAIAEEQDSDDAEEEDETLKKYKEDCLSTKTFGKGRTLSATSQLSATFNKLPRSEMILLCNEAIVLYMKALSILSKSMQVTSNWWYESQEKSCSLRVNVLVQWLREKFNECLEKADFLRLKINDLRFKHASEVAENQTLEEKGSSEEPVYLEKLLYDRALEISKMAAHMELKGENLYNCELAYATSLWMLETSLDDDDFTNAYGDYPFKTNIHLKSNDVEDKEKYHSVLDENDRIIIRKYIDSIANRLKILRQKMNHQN
B2: Autophagy-related protein 19 (Saccharomyces cerevisiae), P35193 (parent)
chain: B1 chain
partner: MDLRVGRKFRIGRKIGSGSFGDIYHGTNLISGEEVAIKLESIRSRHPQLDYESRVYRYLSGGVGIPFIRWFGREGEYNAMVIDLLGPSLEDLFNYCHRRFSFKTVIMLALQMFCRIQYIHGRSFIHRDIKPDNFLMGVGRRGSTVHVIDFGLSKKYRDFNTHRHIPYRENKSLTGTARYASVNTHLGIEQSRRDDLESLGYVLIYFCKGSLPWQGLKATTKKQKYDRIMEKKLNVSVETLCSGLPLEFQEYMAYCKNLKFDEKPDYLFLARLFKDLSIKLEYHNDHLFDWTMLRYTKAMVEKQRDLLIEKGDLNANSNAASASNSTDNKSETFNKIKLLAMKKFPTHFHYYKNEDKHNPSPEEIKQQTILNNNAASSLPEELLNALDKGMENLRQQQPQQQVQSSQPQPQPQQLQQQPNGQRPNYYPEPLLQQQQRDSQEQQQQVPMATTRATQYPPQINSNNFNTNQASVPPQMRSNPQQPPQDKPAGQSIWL
B3: Autophagy-related protein 19 (Saccharomyces cerevisiae), P35193 (parent)
chain: B1 chain
partner: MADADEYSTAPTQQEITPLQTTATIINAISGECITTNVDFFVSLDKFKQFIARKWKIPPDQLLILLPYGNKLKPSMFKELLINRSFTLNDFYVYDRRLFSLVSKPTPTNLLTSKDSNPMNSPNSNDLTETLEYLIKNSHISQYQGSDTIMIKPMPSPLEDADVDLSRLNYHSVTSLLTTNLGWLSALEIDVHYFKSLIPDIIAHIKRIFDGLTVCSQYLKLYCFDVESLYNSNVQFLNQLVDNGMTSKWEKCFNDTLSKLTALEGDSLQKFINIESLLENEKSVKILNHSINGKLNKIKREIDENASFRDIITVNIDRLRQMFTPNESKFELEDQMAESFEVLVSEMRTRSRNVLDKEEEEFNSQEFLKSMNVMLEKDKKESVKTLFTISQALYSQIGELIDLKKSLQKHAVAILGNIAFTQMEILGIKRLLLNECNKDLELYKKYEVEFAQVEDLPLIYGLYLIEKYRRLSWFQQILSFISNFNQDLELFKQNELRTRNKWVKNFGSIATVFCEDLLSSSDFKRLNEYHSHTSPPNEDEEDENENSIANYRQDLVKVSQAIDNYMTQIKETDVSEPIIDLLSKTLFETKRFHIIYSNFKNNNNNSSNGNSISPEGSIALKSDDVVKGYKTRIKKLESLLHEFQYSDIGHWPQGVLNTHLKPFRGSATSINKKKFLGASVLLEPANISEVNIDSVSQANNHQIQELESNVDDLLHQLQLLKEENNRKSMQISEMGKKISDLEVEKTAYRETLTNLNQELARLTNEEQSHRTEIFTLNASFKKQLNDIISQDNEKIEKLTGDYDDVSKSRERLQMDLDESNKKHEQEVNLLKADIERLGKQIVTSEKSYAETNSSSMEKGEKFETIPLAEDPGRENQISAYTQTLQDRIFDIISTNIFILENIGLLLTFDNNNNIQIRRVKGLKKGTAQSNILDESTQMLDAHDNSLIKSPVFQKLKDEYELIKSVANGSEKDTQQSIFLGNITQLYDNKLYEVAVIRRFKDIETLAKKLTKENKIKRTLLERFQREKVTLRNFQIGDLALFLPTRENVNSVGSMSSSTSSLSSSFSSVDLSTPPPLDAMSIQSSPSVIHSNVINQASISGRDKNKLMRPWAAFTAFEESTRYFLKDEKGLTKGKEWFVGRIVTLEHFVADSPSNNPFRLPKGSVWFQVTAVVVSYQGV
B4: Serine/threonine-protein kinase ATG1 (Saccharomyces cerevisiae), P53104 (parent)
chain: B1 partner
partner: B1 chain

In one experiment the parent is B1. Conditions: with atg1_yeast ATG1, P53104.
In the case of MNNSKTNQQMNTSMGYPLTVYDECNKFQLIVPTLDANIMLWCIGQLSLLNDSNGCKHLFWQPNDKSNVRILLNNYDYGHLFKYLQCQRKCSVYIGEGTLKKYNLTISTSFDNFLDLTPSEEKESLCREDAHEDPVSPKAGSEEEISPNSTSNVVVSRECLDNFMKQLLKLEESLNKLELEQKVTNKEPNHRISGTIDIPEDRSELVNFFTELKTVKQLEDVFQRYHDYERLSQECDSKTEIASDHSKKETKIEVEPPNERSLQITMNQRDNSLYFQLFNNTNSVLAGNCKLKFTDAGDKPTTQIIDMGPHEIGIKEYKEYRYFPYALDLEAGSTIEIENQYGEVIFLGKYGSSPMINLRPPSRLSAESLQASQEPFYSFQIDTLPELDDDDIISTDISLSYDGDDNEKALTWEEL [S390D;S391D;S396D], the “effect of a mutation on the interaction” value was “disrupting interaction”.

Variants of B1 are the subject of a further experiment. The following applies: with atg1_yeast ATG1, P53104. The source holds these as a separate data set.
MNNSKTNQQMNTSMGYPLTVYDECNKFQLIVPTLDANIMLWCIGQLSLLNDSNGCKHLFWQPNDKSNVRILLNNYDYGHLFKYLQCQRKCSVYIGEGTLKKYNLTISTSFDNFLDLTPSEEKESLCREDAHEDPVSPKAGSEEEISPNSTSNVVVSRECLDNFMKQLLKLEESLNKLELEQKVTNKEPNHRISGTIDIPEDRSELVNFFTELKTVKQLEDVFQRYHDYERLSQECDSKTEIASDHSKKETKIEVEPPNERSLQITMNQRDNSLYFQLFNNTNSVLAGNCKLKFTDAGDKPTTQIIDMGPHEIGIKEYKEYRYFPYALDLEAGSTIEIENQYGEVIFLGKYGSSPMINLRPPSRLSAESLQASQEPFYSFQIDTLPELDDAAIISTAISLSYDGDDNEKALTWEEL [S390A;S391A;S396A]: the “effect of a mutation on the interaction” value is on record as “disrupting interaction”.

The variants in another experiment derive from B2. Conditions: with hrr25_yeast HRR25, P29295.
Take MNNSKTNQQMNTSMGYPLTVYDECNKFQLIVPTLDANIMLWCIGQLSLLNDSNGCKHLFWQPNDKSNVRILLNNYDYGHLFKYLQCQRKCSVYIGEGTLKKYNLTISTSFDNFLDLTPSEEKESLCREDAHEDPVSPKAGSEEEISPNSTSNVVVSRECLDNFMKQLLKLEESLNKLELEQKVTNKEPNHRISGTIDIPEDRSELVNFFTELKTVKQLEDVFQRYHDYERLSQECDSKTEIASDHSKKETKIEVEPPNERSLQITMNQRDNSLYFQLFNNTNSVLAGNCKLKFTDAGDKPTTQIIDMGPHEIGIKEYKEYRYFPYALDLEAGSTIEIENQYGEVIFLGKYGSSPMINLRPPSRLSAESLQASQEPFYSFQIDTLPELDDAAIISTAISLSYDGDDNEKALTWEEL [S390A;S391A;S396A]: the “effect of a mutation on the interaction” value is reported as “disrupting interaction”.

In the next experiment the parent is B3. Conditions: with atg11_yeast ATG11, Q12527.
Consider MNNSKTNQQMNTSMGYPLTVYDECNKFQLIVPTLDANIMLWCIGQLSLLNDSNGCKHLFWQPNDKSNVRILLNNYDYGHLFKYLQCQRKCSVYIGEGTLKKYNLTISTSFDNFLDLTPSEEKESLCREDAHEDPVSPKAGSEEEISPNSTSNVVVSRECLDNFMKQLLKLEESLNKLELEQKVTNKEPNHRISGTIDIPEDRSELVNFFTELKTVKQLEDVFQRYHDYERLSQECDSKTEIASDHSKKETKIEVEPPNERSLQITMNQRDNSLYFQLFNNTNSVLAGNCKLKFTDAGDKPTTQIIDMGPHEIGIKEYKEYRYFPYALDLEAGSTIEIENQYGEVIFLGKYGSSPMINLRPPSRLSAESLQASQEPFYSFQIDTLPELDDAAIISTAISLSYDGDDNEKALTWEEL [S390A;S391A;S396A], for which the “effect of a mutation on the interaction” value was “disrupting interaction”.

The variants in another experiment derive from B3. Conditions: with atg11_yeast ATG11, Q12527. This is another data set of the same source.
Consider MNNSKTNQQMNTSMGYPLTVYDECNKFQLIVPTLDANIMLWCIGQLSLLNDSNGCKHLFWQPNDKSNVRILLNNYDYGHLFKYLQCQRKCSVYIGEGTLKKYNLTISTSFDNFLDLTPSEEKESLCREDAHEDPVSPKAGSEEEISPNSTSNVVVSRECLDNFMKQLLKLEESLNKLELEQKVTNKEPNHRISGTIDIPEDRSELVNFFTELKTVKQLEDVFQRYHDYERLSQECDSKTEIASDHSKKETKIEVEPPNERSLQITMNQRDNSLYFQLFNNTNSVLAGNCKLKFTDAGDKPTTQIIDMGPHEIGIKEYKEYRYFPYALDLEAGSTIEIENQYGEVIFLGKYGSSPMINLRPPSRLSAESLQASQEPFYSFQIDTLPELDDAAIISTAISLSYDGDDNEKALTWEEL [S390A;S391A;S396A], for which the “effect of a mutation on the interaction” value is “disrupting interaction”.

In another experiment the parent is B3. The following applies: with atg11_yeast ATG11, Q12527. The source holds these as a separate data set.
For MNNSKTNQQMNTSMGYPLTVYDECNKFQLIVPTLDANIMLWCIGQLSLLNDSNGCKHLFWQPNDKSNVRILLNNYDYGHLFKYLQCQRKCSVYIGEGTLKKYNLTISTSFDNFLDLTPSEEKESLCREDAHEDPVSPKAGSEEEISPNSTSNVVVSRECLDNFMKQLLKLEESLNKLELEQKVTNKEPNHRISGTIDIPEDRSELVNFFTELKTVKQLEDVFQRYHDYERLSQECDSKTEIASDHSKKETKIEVEPPNERSLQITMNQRDNSLYFQLFNNTNSVLAGNCKLKFTDAGDKPTTQIIDMGPHEIGIKEYKEYRYFPYALDLEAGSTIEIENQYGEVIFLGKYGSSPMINLRPPSRLSAESLQASQEPFYSFQIDTLPELDDDDIISTDISLSYDGDDNEKALTWEEL [S390D;S391D;S396D], the “effect of a mutation on the interaction” value was “increasing interaction”.

In the next experiment the parent is B4. The following applies: with atg19_yeast ATG19, P35193.
Take D211A: the “effect of a mutation on the interaction” value is recorded as “disrupting interaction”.

(Values after IntAct's records for PubMed 24968893.)
